Data: publication PMC3344845 (2012)

Target: chicken avidin (Gallus gallus (Chicken), UniProt P02701)
Experiment: ITC

chicken avidin, sequence (P02701 25-152): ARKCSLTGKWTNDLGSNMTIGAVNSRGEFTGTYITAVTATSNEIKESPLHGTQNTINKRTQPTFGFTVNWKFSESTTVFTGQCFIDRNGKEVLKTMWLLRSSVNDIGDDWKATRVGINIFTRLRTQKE

SEKLSNTK (protein) [Brad-tag (synthetic peptide SEKLSNTK)]
binding result: no binding
